Experimental data as given in PMC3553952 (Nucleic Acids Research, 2012).

T1: Pab-aCPSF1 (Pyrococcus abyssi, UniProt Q9V0P0 1-648)
T1 sequence: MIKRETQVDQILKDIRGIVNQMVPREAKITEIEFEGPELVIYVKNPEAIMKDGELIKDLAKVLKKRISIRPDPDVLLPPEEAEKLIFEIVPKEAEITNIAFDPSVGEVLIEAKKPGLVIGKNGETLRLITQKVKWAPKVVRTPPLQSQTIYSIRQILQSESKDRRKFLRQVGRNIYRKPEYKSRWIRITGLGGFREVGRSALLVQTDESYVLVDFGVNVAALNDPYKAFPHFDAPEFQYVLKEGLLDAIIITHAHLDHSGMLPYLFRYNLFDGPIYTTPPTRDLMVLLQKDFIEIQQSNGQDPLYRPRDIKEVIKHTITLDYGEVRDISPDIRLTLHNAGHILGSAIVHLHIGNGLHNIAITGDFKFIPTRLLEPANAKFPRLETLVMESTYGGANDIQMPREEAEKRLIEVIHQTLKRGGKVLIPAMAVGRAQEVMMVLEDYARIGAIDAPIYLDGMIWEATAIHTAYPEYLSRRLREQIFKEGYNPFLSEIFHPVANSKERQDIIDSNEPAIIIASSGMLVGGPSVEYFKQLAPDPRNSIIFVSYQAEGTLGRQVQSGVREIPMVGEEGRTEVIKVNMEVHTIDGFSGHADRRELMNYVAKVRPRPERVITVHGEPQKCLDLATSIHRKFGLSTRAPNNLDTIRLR

B1: Pab-aCPSF1ΔKH (variant missing the first 179 residues of Pab-aCPSF1) (domain or fragment, Pyrococcus abyssi, UniProt Q9V0P0 180-648, looked up)
chain: EYKSRWIRITGLGGFREVGRSALLVQTDESYVLVDFGVNVAALNDPYKAFPHFDAPEFQYVLKEGLLDAIIITHAHLDHSGMLPYLFRYNLFDGPIYTTPPTRDLMVLLQKDFIEIQQSNGQDPLYRPRDIKEVIKHTITLDYGEVRDISPDIRLTLHNAGHILGSAIVHLHIGNGLHNIAITGDFKFIPTRLLEPANAKFPRLETLVMESTYGGANDIQMPREEAEKRLIEVIHQTLKRGGKVLIPAMAVGRAQEVMMVLEDYARIGAIDAPIYLDGMIWEATAIHTAYPEYLSRRLREQIFKEGYNPFLSEIFHPVANSKERQDIIDSNEPAIIIASSGMLVGGPSVEYFKQLAPDPRNSIIFVSYQAEGTLGRQVQSGVREIPMVGEEGRTEVIKVNMEVHTIDGFSGHADRRELMNYVAKVRPRPERVITVHGEPQKCLDLATSIHRKFGLSTRAPNNLDTIRLR
B2: sR47Mut21U (structured_RNA)
RNA: GAUGAAGAUGAUGAGCUCGGUAGGUCCUGAGGAGUGAUGAGGAUCUUGAGUGCUGAUUCACCUU
B3: sR47MutCG (structured_RNA)
RNA: GAUGAAGAUGAUGAGCUCGGCAGGUCCUGAGGAGUGAUGAGGAUCUGCUGAGUGCUGAUUCACCUU

Columns and labels:
[1] = target: the molecule itself; assay: SEC
[2] = target: T1, Pab-aCPSF1; assay: EMSA

| Binder | stoichiometry N [1] | binding result [2] |
| --- | --- | --- |
| B1 | 2 | – |
| B2 | – | binds |
| B3 | – | binds |
